According to patent US20250223359A1 (published 2025):
Numbering of substitutions follows the chain as printed.

T1: human CD19 (human, UniProt P15391 20-556)
T1 construct: whole, on cells; also called huCD19; hCD19
T1 sequence (looked up): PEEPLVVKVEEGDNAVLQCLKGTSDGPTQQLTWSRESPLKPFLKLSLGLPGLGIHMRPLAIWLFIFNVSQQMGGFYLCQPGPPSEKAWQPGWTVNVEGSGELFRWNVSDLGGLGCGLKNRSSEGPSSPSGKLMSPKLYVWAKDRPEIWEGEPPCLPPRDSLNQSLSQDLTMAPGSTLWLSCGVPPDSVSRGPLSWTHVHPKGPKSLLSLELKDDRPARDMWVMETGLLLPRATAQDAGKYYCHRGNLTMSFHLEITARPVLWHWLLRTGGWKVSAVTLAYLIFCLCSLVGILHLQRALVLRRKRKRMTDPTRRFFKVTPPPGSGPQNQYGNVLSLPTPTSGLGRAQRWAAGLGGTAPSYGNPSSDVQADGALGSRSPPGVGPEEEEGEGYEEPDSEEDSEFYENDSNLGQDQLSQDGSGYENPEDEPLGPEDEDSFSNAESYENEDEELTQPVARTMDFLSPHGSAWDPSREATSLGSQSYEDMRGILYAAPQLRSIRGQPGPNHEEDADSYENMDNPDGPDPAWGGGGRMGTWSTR

B1: CD58_IgV (ligand)
chain: SQQIYGVVYGNVTFHVPSNVPLKEVLWKKQKDKVAELENSEFRAFSSFKNRVYLDTVSGSLTIYNLTSSDEDEYEMESPNITDTMKFFLYVLESGGGGSHHHHHHHH
notes: also called CD58 domain 1; IgV WT
B2: CD58 IgV V45C_M114C (ligand)
chain: B1 chain with V16C, M85C
notes: Disulfide-stabilized variant
B3: CD58 IgV V54C_G88C (ligand)
chain: B1 chain with V25C, G59C
notes: Disulfide-stabilized variant
B4: CD58 IgV V45C_M105C (ligand)
chain: B1 chain with V16C, M76C
notes: Disulfide-stabilized variant
B5: CD3hi TSP2 (R variant) (other)
heavy: EVQLVQSGAEVKKPGESLKISCKASGYSFTNYWMNWVRQMPGKGLEWMGMIHPSDSEIRLNQKFQGQVTLSVDKSIGTAYMQWSSLKASDTAMYYCSRWYYLSSPMDYWGQGTTVTVSSASTKGPSVFPLAPSSKSTSGGTAALGCLVKDYFPEPVTVSWNSGALTSGVHTFPAVLQSSGLYSLSSVVTVPSSSLGTQTYICNVNHKPSNTKVDKRVEPKSCGGGGSGGGGSEVQLVESGGGLVQPGGSLKLSCAASGFTFNTYAMNWVRQASGKGLEWVGRIRSKYNNYATYYADSVKDRFTISRDDSKSTLYLQMNSLKTEDTAVYYCVRHGNFGNSYVSWFAYWGQGTLVTVSSGGGGSGGGGSGGGGSGGGGSQAVVTQEPSLTVSPGGTVTLTCRSSTGAVTTSNYANWVQQKPGQAPRGLIGGTNKRAPWTPARFSGSLLGDKAALTLSGAQPEDEAEYFCALWYSNLWVFGGGTKLTVLGGGGSDKTHTCPPCPAPELLGGPSVFLFPPKPKDTLMISRTPEVTCVVVAVSHEDPEVKFNWYVDGVEVHNAKTKPREEQYASTYRVVSVLTVLHQDWLNGKEYKCKVSNKALAAPIEKTISKAKGQPREPQVCTLPPSREEMTKNQVSLSCAVKGFYPSDIAVEWESNGQPENNYKTTPPVLDSDGSFFLVSKLTVDKSRWQQGNVFSCSVMHEALHNHYTQKSLSLSPGK
light: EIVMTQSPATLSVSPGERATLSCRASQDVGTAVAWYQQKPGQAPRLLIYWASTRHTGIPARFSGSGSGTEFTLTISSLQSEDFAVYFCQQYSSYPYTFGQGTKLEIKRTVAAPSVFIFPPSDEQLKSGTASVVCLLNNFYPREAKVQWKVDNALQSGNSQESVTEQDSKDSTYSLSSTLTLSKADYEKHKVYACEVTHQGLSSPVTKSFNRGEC
chain: SQQIYGVVYGNVTFHVPSNVPLKEVLWKKQKDKVAELENSEFRAFSSFKNRVYLDTVSGSLTIYNLTSSDEDEYEMESPNITDTMKFFLYVLESGGGGSDKTHTCPPCPAPELLGGPSVFLFPPKPKDTLMISRTPEVTCVVVAVSHEDPEVKFNWYVDGVEVHNAKTKPREEQYASTYRVVSVLTVLHQDWLNGKEYKCKVSNKALAAPIEKTISKAKGQPREPQVYTLPPCREEMTKNQVSLWCLVKGFYPSDIAVEWESNGQPENNYKTTPPVLDSDGSFFLYSKLTVDKSRWQQGNVFSCSVMHEALHNRYTQKSLSLSPGK
notes: also called CD19_NEG218_CD3_16nM-CD58 Trispecific; αCD19(NEG218)-αCD3-CD58IgV
B6: CD3hi TSP1 (R variant) (other)
heavy: QVQLVQSGAEVKKPGASVKVSCKASGYTFTTYWIQWVRQAPGQRLEWMGAVYPGDADTRYTQKFQGRVTLTADRSASTAYMELSSLRSEDTAVYYCGRDAGLEYYALDYWGQGTLVTVSSASTKGPSVFPLAPSSKSTSGGTAALGCLVKDYFPEPVTVSWNSGALTSGVHTFPAVLQSSGLYSLSSVVTVPSSSLGTQTYICNVNHKPSNTKVDKRVEPKSCGGGGSGGGGSEVQLVESGGGLVQPGGSLKLSCAASGFTFNTYAMNWVRQASGKGLEWVGRIRSKYNNYATYYADSVKDRFTISRDDSKSTLYLQMNSLKTEDTAVYYCVRHGNFGNSYVSWFAYWGQGTLVTVSSGGGGSGGGGSGGGGSGGGGSQAVVTQEPSLTVSPGGTVTLTCRSSTGAVTTSNYANWVQQKPGQAPRGLIGGTNKRAPWTPARFSGSLLGDKAALTLSGAQPEDEAEYFCALWYSNLWVFGGGTKLTVLGGGGSDKTHTCPPCPAPELLGGPSVFLFPPKPKDTLMISRTPEVTCVVVAVSHEDPEVKFNWYVDGVEVHNAKTKPREEQYASTYRVVSVLTVLHQDWLNGKEYKCKVSNKALAAPIEKTISKAKGQPREPQVCTLPPSREEMTKNQVSLSCAVKGFYPSDIAVEWESNGQPENNYKTTPPVLDSDGSFFLVSKLTVDKSRWQQGNVFSCSVMHEALHNHYTQKSLSLSPGK
light: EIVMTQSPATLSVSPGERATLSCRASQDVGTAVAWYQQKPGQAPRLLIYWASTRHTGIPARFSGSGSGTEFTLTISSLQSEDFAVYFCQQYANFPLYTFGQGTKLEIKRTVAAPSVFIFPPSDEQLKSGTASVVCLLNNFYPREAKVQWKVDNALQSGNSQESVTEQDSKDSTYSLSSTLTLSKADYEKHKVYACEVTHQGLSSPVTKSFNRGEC
chain: B5 chain
notes: also called CD19_NEG258_CD3_16nM-CD58 Trispecific; αCD19(NEG258)-αCD3(16 nM)-αCD58IgV
B7: CD58 Full ECD (ligand)
chain: SQQIYGVVYGNVTFHVPSNVPLKEVLWKKQKDKVAELENSEFRAFSSFKNRVYLDTVSGSLTIYNLTSSDEDEYEMESPNITDTMKFFLYVLESLPSPTLTCALTNGSIEVQCMIPEHYNSHRGLIMYSWDCPMEQCKRNSTSIYFKMENDLPQKIQCTLSNPLFNTTSSIILTTCIPSSGHSRHRGGGGSHHHHHHHH
B8: Human CD2 (recombinant extracellular domain, Avi-tagged) (receptor)
chain: KEITNALETWGALGQDINLDIPSFQMSDDIDDIKWEKTSDKKKIAQFRKEKETFKEKDTYKLFKNGTLKIKHLKTDDQDIYKVSIYDTKGKNVLEKIFDLKIQERVSKPKISWTCINTTLTCEVMNGTDPELNLYQDGKHLKLSQRVITHKWTTSLSAKFKCTAGNKVSKESSVEPVSCPEKGLD
modifications: site selectively biotinylated during expression (C-terminal Avi-Tag, BirA co-transfection)
notes: Produced in HEK293 cells; also called recombinant human CD2

Experiments:
[1] = molecular target: B8; test: ITC; 100 uM CD2 titrated into 10 uM CD58 variant in HBS
Experimental: (§1) To ensure the binding affinity remained uncompromised by the additional of the stabilizing disulfide variance, isothermal calorimetry (ITC) was performed on the resulting recombinant CD58 proteins to determine their apparent KD and binding stoicheometry (n) to recombinant human CD2.
(§2) Briefly, recombinant human CD2 and recombinant human CD58 variants were dialyzed into HEPES-buffered saline (HBS). CD2 was diluted to final concentration of 100 μM, CD58 variants were diluted to 10 μM. CD2 was titrated into 10 μM of CD58 variants via multiple injections and ΔH (kcal/mole) determined using a MicroCal VP-ITC isothermal titration calorimeter (Malvern). Titrations of CD2 into HBS were used as a reference and KD and n determined from the resulting data.

human CD19 [2] = molecular target: T1, human CD19; test: flow cytometry on murine 300.19 cells overexpressing human CD19; serial dilutions; anti-human Fc Alexa-647 secondary
human CD19 [3] = molecular target: T1, human CD19; test: flow cytometry on 300.19 cells overexpressing human CD19 (figure legend)
CD58 Full ECD = molecular target: B7; test: ITC; 100 uM CD2 titrated into 10 uM CD58 variant in HBS
Experimental: as §1, §2

Binder	Kd [1]	n (binding stoichiometry) [1]	also measured
B1	610 nM	0.96	
B2	380 nM	0.88	
B3	600 nM	0.83	
B4	880 nM	0.97	
B5			binding result (human CD19 [2]): binds
B6			binding result (human CD19 [3]): binds
B7		0.92	
B8			Kd (CD58 Full ECD): 570 nM
